# Source: the supplement of paper PMC10724198
# ± gives the standard deviation of the averaged measurements.
# Columns and labels:
# Saccharomyces cerevisiae [1] = assay: protein stability index of tFT-peptide fusion (C-terminal peptide) (PSI (0-1 scale)); higher = more stable (slower turnover)
# Procedure: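 MPS profiling in S. cerevisiae of the tFT-X12 degron library: putative degron peptides plus stable controls, 12 aa, fused to the C-terminus of a sfGFP-mCherry timer. Cells are FACS-sorted into 8 mCherry/sfGFP bins and deep-sequenced. PSI runs from 0 (unstable) to 1 (stable). Backgrounds are wild type, das1Δ and doa10Δ at 30 °C, and wild type, das1Δ, cdc34-1 and cdc53-1 at 37 °C; 2-3 technical replicates each.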
# Saccharomyces cerevisiae [2] = assay: as above; conditions: genetic background: wild type; temperature: 30 C
# [3] = genetic background: cdc34-1, temperature: 37 C
# [4] = genetic background: cdc53-1, temperature: 37 C
# [5] = genetic background: das1 deletion, temperature: 30 C
# [6] = genetic background: das1 deletion, temperature: 37 C
# [7] = genetic background: doa10 deletion, temperature: 30 C
# [8] = genetic background: wild type, temperature: 30 C
# [9] = genetic background: wild type, temperature: 37 C
# 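Note: PSI is a weighted mean of sequencing reads over stability bins, variants kept only with over 10 reads, mCherry proximal and sfGFP distal, peptide attached via GGGS linker.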
Sequence,protein stability index (Saccharomyces cerevisiae [1]; [3]),protein stability index (Saccharomyces cerevisiae [1]; [4]),protein stability index (Saccharomyces cerevisiae [1]; [5]),protein stability index (Saccharomyces cerevisiae [1]; [6]),protein stability index (Saccharomyces cerevisiae [1]; [7]),protein stability index (Saccharomyces cerevisiae [1]; [8]),protein stability index (Saccharomyces cerevisiae [1]; [9]),protein stability index (Saccharomyces cerevisiae [2])
VLRLLARRHAMV,0.577 ± 0.036,0.6735 ± 0.002,0.614 ± 0.015,0.689 ± 0.013,0.148 ± 0.013,0.145 ± 0.028,0.251 ± 0.02,0.308 ± 0.017
YLCFVVSCGVLR,0.421 ± 0.0051,0.475 ± 0.026,0.327 ± 0.031,0.529 ± 0.0087,0.295 ± 0.018,0.313 ± 0.017,0.5035 ± 0.0016,0.383 ± 0.086
YYQVSQKIQRKQ,0.681 ± 0.012,0.708 ± 0.021,0.639 ± 0.023,0.726 ± 0.042,0.323 ± 0.0077,0.371 ± 0.018,0.584 ± 0.014,0.435 ± 0.065
LSCCIVLLIIFV,0.245 ± 0.021,0.35 ± 0.021,0.27 ± 0.026,0.39762 ± 0.00019,0.253 ± 0.0077,0.262 ± 0.029,0.341 ± 0.025,0.338 ± 0.055
PTPSRPPHPPLR,0.704 ± 0.049,0.752 ± 0.05,0.633 ± 0.013,0.725 ± 0.054,0.658 ± 0.025,0.66 ± 0.0015,0.69 ± 0.0022,0.704 ± 0.02
VGGLGWCWVCMA,0.573 ± 0.041,0.718 ± 0.035,0.595 ± 0.017,0.75 ± 0.013,0.132 ± 0.01,0.158 ± 0.023,0.246 ± 0.0056,0.25 ± 0.016
PPVPRLLPVLAP,0.525 ± 0.038,0.503 ± 0.015,0.379 ± 0.025,0.546 ± 0.02,0.348 ± 0.0045,0.385 ± 0.025,0.506 ± 0.0077,0.474 ± 0.0057
LRVVLVEWMCVV,0.248 ± 0.017,0.295 ± 0.036,0.274 ± 0.037,0.418 ± 0.0054,0.172 ± 0.011,0.21 ± 0.023,0.358 ± 0.011,0.33 ± 0.03
KTDVYPVSFFTC,0.532 ± 0.013,0.738 ± 0.0099,0.645 ± 0.043,0.711 ± 0.055,0.0924 ± 0.019,0.0951 ± 0.026,0.133 ± 0.013,0.184 ± 0.028
FLLPWLRPVFFF,0.522 ± 0.056,0.607 ± 0.055,0.567 ± 0.013,0.69 ± 0.0074,0.219 ± 0.0046,0.218 ± 0.024,0.369 ± 0.029,0.293 ± 0.011
IVVSSRFLGFFC,0.53 ± 0.073,0.701 ± 0.07,0.62 ± 0.032,0.742 ± 0.0077,0.0947 ± 0.012,0.102 ± 0.012,0.18 ± 0.0083,0.2 ± 0.0025
ASLSSSRPPLLP,0.685 ± 0.053,0.752 ± 0.02,0.658 ± 0.025,0.7114 ± 0.0024,0.644 ± 0.02,0.648 ± 0.014,0.6962 ± 0.0011,0.746 ± 0.051
WVVLVCGFVLLG,0.246 ± 0.0069,0.369 ± 0.0077,0.243 ± 0.042,0.442 ± 0.0073,0.22 ± 0.0029,0.234 ± 0.019,0.361 ± 0.012,0.3175 ± 0.0027
IPGGRPLLVEVR,0.339 ± 0.02,0.384 ± 0.018,0.254 ± 0.044,0.518 ± 0.074,0.216 ± 0.0041,0.264 ± 0.033,0.439 ± 0.015,0.426 ± 0.035
FSFFLYFFLLLF,0.327 ± 0.025,0.304 ± 0.0072,0.31 ± 0.026,0.402 ± 0.016,0.392 ± 0.032,0.271 ± 0.034,0.389 ± 0.016,0.315 ± 0.0031
LVGWSWRGWFVV,0.512 ± 0.029,0.6899 ± 0.0065,0.6201 ± 0.0015,0.769 ± 0.015,0.0763 ± 0.011,0.094 ± 0.029,0.112 ± 0.012,0.139 ± 0.025
GRGLRVCWVWSG,0.622 ± 0.054,0.7084 ± 0.0069,0.605 ± 0.019,0.7428 ± 0.0054,0.147 ± 0.013,0.18 ± 0.015,0.387 ± 0.013,0.286 ± 0.016
VCCSILFSAFLV,0.614 ± 0.088,0.6552 ± 0.0051,0.532 ± 0.019,0.653 ± 0.001,0.4 ± 0.024,0.4 ± 0.012,0.549 ± 0.013,0.475 ± 0.041
PVLIFTWVIVCH,0.0357 ± 0.011,0.0674 ± 0.026,0.0676 ± 0.026,0.142 ± 0.013,0.0332 ± 0.0019,0.0533 ± 0.023,0.0899 ± 0.012,0.162 ± 0.036
DVVRWQRVRNYV,0.687 ± 0.024,0.7218 ± 0.0072,0.632 ± 0.022,0.737 ± 0.0088,0.2746 ± 0.0021,0.3 ± 0.028,0.573 ± 0.0059,0.454 ± 0.041
